Target: the molecule itself

B1: zSIGIRR-TIR (domain or fragment)
chain: KMYDAYISYVNNENDRKFVNFILKPHLENKYSHKLLLNNTNILPGAEPSAELLMNISRCQRLIVVLSQSYLEQEWCTTNFRQGLWHLIELSRKPIFIIFQSQQKQISQDISQQLRQHQPCITMITWGAHSMTPSSGFWKELALVMPRK
stoichiometry N: 2

Source: PMC9213720 (iScience, 2022)
